The results in this text go back to patent US20250215108A1 (OSE IMMUNOTHERAPEUTICS, published 2025).

Values joined by “and” are separate entries in the source; they are usually repeats but may differ in a detail not shown here. Equal values may be shown once.

The target in assay [1] is T1, recombinant hSIRPa (Sino Biologicals, reference 10975-H08H) (human, UniProt P78324 31-370).
T1 construct: Used in the ELISA with the mouse antibodies
Description: ELISA (ED50), immobilized hSIRPa, anti-mouse Fc detection. On the procedure:
For the ELISA assay with the mouse antibodies, a recombinant hSIRPa (Sino Biologicals, Beijing, China; reference 10975-H08H) was immobilized on plastic at 0.5 μg/ml in carbonate buffer (pH 9.2) and the purified antibody was added to measure binding.

Assay [2] addresses T2, SIRPa on human monocytes (human, UniProt P78324 31-504).
T2 construct: also called human monocytes (v1/v1); SIRPa variant 1 on monocytes
The experiment in a line: flow cytometry on human monocytes v1/v1 (Fc receptors blocked), PE anti-human Fc; readout MFI. As for the experimental part:
(§1) FIG. 3A, B, C, D, E, F, G. Binding analyses of anti-SIRPa antibodies on human monocytes (homozygote for SIRPa variant 1 (v1/v1)). [0478] […] Revelation was performed with a PE labeled mouse anti-human Fc mAb on Cantoll cytometer, values corresponding to percentage of stained monocytes. […] A corresponds to the percentage of monocytes v1/v1 stained. B corresponds to the mean of fluorescence intensity (MFI) of monocytes v1/v1. [0479] […] D represents the percentage of stained monocytes over antibody dose response. Statistical analysis were performed when it was possible. [0480] (E, F, G) SIRPa variants binding in the population by anti-h SIRPa antibodies: The capacity of different anti-hSIRPa antibodies to bind SIRPa variants in the 32 volunteers was measured by FACS with a PE-anti mouse IgG. […] F represents the homozygote variant 2 volunteers (n=8). G represents the heterozygote V1/V2 volunteers (n=8).
(§2) Method: To measure the binding of the anti-SIRPa antibodies on human monocytes, human Fc Receptor Binding Inhibitor (BD pharmingen; USA; reference 564220) was first added for 30 min at room-temperature to block human Fc receptors on human monocytes to reduce background. Then, an antibody was incubated for 30 min at 4° C., and washed before stained 30 min at 4° C. with PE-labelled anti-human IgG Fc (Biolegend; USA; reference 409303). For the mouse antibodies, a PE-labelled anti-mouseIgG (Jackson Immunoresearch; reference 715-116-151) was used. Samples were analyzed on BD LSRII or Canto II cytofluorometer.
(In general: In flow cytometry, cells or beads pass a laser one at a time.)

Assay [3] has as its target T2, SIRPa on human monocytes. The experiment in a line: flow cytometry on human monocytes v1/v1 (Fc receptors blocked), PE anti-human Fc; readout % stained monocytes. As for the experimental part:
as §1, §2

Assay [4] has as its target T3, CD47 on human blood cells (T cells, red blood cells, platelets) (human, UniProt Q08722 19-323).
T3 construct: whole, on cells
Description: flow cytometry on human red blood cells (left panel) and freshly isolated human platelets (right panel).

Assay [5] concerns the target T2, SIRPa on human monocytes. Description: competition flow cytometry on human monocytes v1/v1: antibody titrated with biotinylated CD47-Fc (competitor; 10 µg/ml in the legend, 5 µg/ml in Example 5), PE-streptavidin; readout % positives. An excerpt: (§3) FIG. 5A, B, C. […] [0485] […] A corresponds to the percentage of positive cells. B corresponds to the mean of fluorescence intensity. [0486]

Assay [6] concerns the target T2, SIRPa on human monocytes. The experiment in a line: competition flow cytometry on human monocytes v1/v1: antibody titrated with biotinylated CD47-Fc (competitor; 10 µg/ml in the legend, 5 µg/ml in Example 5), PE-streptavidin; readout median fluorescence.
Text: as §3

B1: mouse antibody 18D5 (antibody, mouse IgG2b, kappa)
heavy: QVQLQQPGAELVRPGSSVKLSCKASGYTFTSYWVHWVKQRPIQGLEWIGNIDPSDSDTHYNQKFKDKASLTVDKSSSTAYMQLSSLTFEDSAVYYCVRGGTGTMAWFAYWGQGTLVTVSAAKTTPPSVYPLAPGCGDTTGSSVTLGCLVKGYFPESVTVTWNSGSLSSSVHTFPALLQSGLYTMSSSVTVPSSTWPSQTVTCSVAHPASSTTVDKKLEPSGPISTINPCPPCKECHKCPAPNLEGGPSVFIFPPNIKDVLMISLTPKVTCVVVDVSEDDPDVQISWFVNNVEVHTAQTQTHREDYNSTIRVVSTLPIQHQDWMSGKEFKCKVNNKDLPSPIERTISKIKGLVRAPQVYILPPPAEQLSRKDVSLTCLVVGFNPGDISVEWTSNGHTEENYKDTAPVLDSDGSYFIYSKLNMKTSKWEKTDSFSCNVRHEGLKNYYLKKTISRSPGK
light: DVVMTQTPLSLPVSLGDQASISCRSSQSLVHSYGNTYLYWYLQKPGQSPKLLIYRVSNRFSGVPDRFSGSGSGTDFTLKISRVEAEDLGVYFCFQGTHVPYTFGSGTKLEIKRADAAPTVSIFPPSSEQLTSGGASVVCFLNNFYPKDINVKWKIDGSERQNGVLNSWTDQDSKDSTYSMSSTLTLTKDEYERHNSYTCEATHKTSTSPIVKSFNRNEC
notes: also called m18D5; m18D5 clone
For orientation: EC50 means the concentration needed to bring the measured effect to its halfway point. Consider B1, for which the EC50 in assay [1] was 0.06 nM and 0.009 µg/mL.

B2: HFLA (humanized 18D5 variant) (antibody, human IgG4 S228P, kappa, V domains shown)
VH: EVQLVQSGAEVKKPGESLRISCKASGYSFTSYWVHWVRQMPGKGLEWMGNIDPSDSDTHYSPSFQGHVTLSVDKSISTAYLQLSSLKASDTAMYYCVRGGTGTMAYFAYWGQGTLVTVSS
VL: DVVMTQSPLSLPVTLGQPASISCRSSQSLVHSYGNTYLYWYQQRPGQSPRLLIYRVSNRFSGVPDRFSGSGSGTDFTLKISRVEAEDVGVYFCFQGTHVPYTFGGGTKVEIKR
Regarding B2, the results for the EC50 with SIRPa on human monocytes [2] and with SIRPa on human monocytes [3] were 0.328 µg/mL and 0.174 µg/mL, respectively.

B3: HALA (humanized 18D5 variant) (antibody, human IgG4 S228P, kappa, V domains shown)
VH: EVQLVQSGAEVKKPGESLRISCKASGYTFTSYWVHWVRQMPGKGLEWIGNIDPSDSDTHYNQKFKDHVTLSVDKSISTAYLQLSSLKASDTAMYYCVRGGTGTMAWFAYWGQGTLVTVSS
VL: DVVMTQSPLSLPVTLGQPASISCRSSQSLVHSYGNTYLYWYQQRPGQSPRLLIYRVSNRFSGVPDRFSGSGSGTDFTLKISRVEAEDVGVYFCFQGTHVPYTFGGGTKVEIKR
For B3, the EC50 with SIRPa on human monocytes [2] stood at 0.59 µg/mL; with SIRPa on human monocytes [3] it was 0.242 µg/mL.

B4: HEFLB (humanized 18D5 variant) (antibody, human IgG4 S228P, kappa, V domains shown)
VH: EVQLVQSGAEVKKPGESLRISCKASGYSFTSYWVHWVRQMPGKGLEWMGNIDPSDSDTHYSPSFQGHVTLSVDKSISTAYLQLSSLKASDTAMYYCVRGGTGTLAYFAYWGQGTLVTVSS
VL: DVVMTQSPLSLPVTLGQPASISCRSSQSLVHSYGNTYLYWFQQRPGQSPRLLIYRVSNRFSGVPDRFSGSGSGTDFTLKISRVEAEDVGVYYCFQGTHVPYTFGGGTKVEIKR
notes: also called anti-SIRPa HEFLB; HEFLB variant
With B4, the EC50 in the assay with SIRPa on human monocytes [2] is 0.449 µg/mL; with SIRPa on human monocytes [3], 0.208 µg/mL. Further, in assay [4], the binding result is “no binding”.

B5: HEFLA (humanized 18D5 variant) (antibody, human IgG4 S228P, kappa, V domains shown)
VH: EVQLVQSGAEVKKPGESLRISCKASGYSFTSYWVHWVRQMPGKGLEWMGNIDPSDSDTHYSPSFQGHVTLSVDKSISTAYLQLSSLKASDTAMYYCVRGGTGTLAYFAYWGQGTLVTVSS
VL: DVVMTQSPLSLPVTLGQPASISCRSSQSLVHSYGNTYLYWYQQRPGQSPRLLIYRVSNRFSGVPDRFSGSGSGTDFTLKISRVEAEDVGVYFCFQGTHVPYTFGGGTKVEIKR
On to B5, for which the 50% effective concentration (EC50) turned out to be 0.858 µg/mL with SIRPa on human monocytes [2] and 0.356 µg/mL with SIRPa on human monocytes [3].

B6: HFLB (humanized 18D5 variant) (antibody, human IgG4 S228P, kappa, V domains shown)
VH: EVQLVQSGAEVKKPGESLRISCKASGYSFTSYWVHWVRQMPGKGLEWMGNIDPSDSDTHYSPSFQGHVTLSVDKSISTAYLQLSSLKASDTAMYYCVRGGTGTMAYFAYWGQGTLVTVSS
VL: DVVMTQSPLSLPVTLGQPASISCRSSQSLVHSYGNTYLYWFQQRPGQSPRLLIYRVSNRFSGVPDRFSGSGSGTDFTLKISRVEAEDVGVYYCFQGTHVPYTFGGGTKVEIKR
Broadly, the IC50 is the concentration that gives 50% inhibition. Higher therefore signals weaker potency. For the molecule B6, the EC50 in the assay with SIRPa on human monocytes [2] is 0.467 µg/mL; in the assay with SIRPa on human monocytes [3], 0.201 µg/mL. Also, in the assay with SIRPa on human monocytes [5], the IC50 is 0.15 µg/mL.

B7: chimeric mouse/human 18D5 antibody (antibody, human IgG4 S228P, kappa)
heavy: not shown
light: DVVMTQTPLSLPVSLGDQASISCRSSQSLVHSYGNTYLYWYLQKPGQSPKLLIYRVSNRFSGVPDRFSGSGSGTDFTLKISRVEAEDLGVYFCFQGTHVPYTFGSGTKLEIKRTVAAPSVFIFPPSDEQLKSGTASVVCLLNNFYPREAKVQWKVDNALQSGNSQESVTEQDSKDSTYSLSSTLTLSKADYEKHKVYACEVTHQGLSSPVTKSFNRGEC
notes: also called chimeric antibody; chimeric 18D5
B7 displayed an IC50 with SIRPa on human monocytes [6] of 0.2 µg/mL. The EC50 in the assay with SIRPa on human monocytes [2] is 0.78 µg/mL; with SIRPa on human monocytes [3], 0.225 µg/mL.
